Assay results: patent US20230079150A1, “METHODS FOR PREVENTION OR TREATMENT OF VIRUS-INDUCED ORGAN INJURY OR FAILURE WITH IL-22 DIMER” (priority 2020, published 2023)

Key:
[1] = tested on: H1N1 influenza (A/PR8 strain); format: in vivo, C57BL/6 mice; conditions: aged hosts; treated for 3 weeks
C57BL/6 mice = assay: LPS acute lung injury mouse model: BAL inflammatory mediators (Milliplex cytokine panel); format: in vivo; conditions: day 4
Experimental: After approval from the Tulane University, Institutional Animal Care and Use Committee (protocol ID 607), equal numbers of male and female, 6-8 week old C57BL/6 mice (Charles River Laboratories, Cambridge, Mass.) were given acute lung injury (ALI) via intra-tracheally administered LPS. After obtaining appropriate depth of anesthesia using isoflurane, the high-dose LPS group (HDG) received 100 μg of LPS administered intra-tracheally. Approximately 30 minutes after LPS administration, 4 μg of F-652 was administered via tail vein injection (n=11), then compared to animals receiving sham injection (n=8) with phosphate-buffered saline (PBS). In the low-dose LPS group (LDG), 33.3 μg of LPS was administered intra-tracheally. F-652 was again administered at 30 minutes (n=9) and compared to sham injected animals (n=9). The Interleukin-22:Fc (F-652) protein is a recombinant fusion protein (F-652) (Evive Biotech, Shanghai, China) with two human IL-22 molecules linked to the Fc portion of human immunoglobulin G2, which extends the half-life of the molecule.
Euthanasia and bronchoalveolar lavage (BAL) was carried out on post-injury day 4. After obtaining appropriate levels of anesthesia with inhaled isoflurane, the trachea was cannulated using a 26 gauge needle and BAL was performed with three successive washes using 1 mL of PBS. Next, a small segment of the left lower lobe was removed and saved for RNA isolation. Finally, 1 cc of 4% paraformaldehyde was injected to the lung for fixation.
The BAL fluid was then centrifuged at 500×gravity for 5 minutes. Cells were obtained from the BAL after centrifuge and cell counts performed. Cells were then affixed to glass slides and stained with Wright's stain. To quantify protein in the BAL supernatant, a Bradford protein assay (Bio-Rad Laboratories) was performed. Protein was quantified by measuring absorbance at 595 nm on a BMG Labtech FLUOstar Optima plate reader. In addition, the BAL supernatant was used to measure pro-inflammatory cytokines using a Milliplex Mouse Cytokine/Chemokine Magnetic Bead Panel (Millipore Sigma). The 32 cytokines measured included Eotaxin, Granulocyte Colony-Stimulating Factor (G-CSF), Granulocyte-Monocyte Colony-Stimulating Factor (GM-CSF), Interferon-γ (IFN-γ), Interleukin-1α (IL-1α), IL-1, IL-2, IL-3, IL-4, IL-5, IL-6, IL-7, IL-9, IL-10, IL-12 (p40 segment), IL-12 (p70 segment), IL-13, IL-15, IL-17, Interferon-γ induced protein 10 (IP-10), keratinocyte chemoattractant (KC), leukemia inhibitory factor (LIF), lipopolysaccharide-induced CXC chemokine (LIX), monocyte chemoattractant protein-1 (MCP-1), macrophage colony-stimulating factor (M-CSF), monokine induced by gamma-interferon (MIG), MIP-1α, macrophage inflammatory protein-1β/CCL4 (MIP-1β), MIP-2, regulated upon activation, normal T-cell expressed and presumably secreted (RANTES), tumor necrosis factor-α (TNF-α), vascular endothelial growth factor (VEGF). Human IL-22 was measured using an IL-22 Human ELISA kit (ThermoFisher Scientific). Mouse IL-22 was measured using an IL-22 Mouse/Rat Quantikine ELISA kit (R&D Systems).

[2] = tested on: H1N1 influenza (A/PR8 strain); format: in vivo, C57BL/6 mice

B1: F-652: recombinant IL-22 dimer consisting of two monomeric subunits each comprising a sequence shown in SEQ ID NO: 24 (protein)
chain 1: APISSHCRLDKSNFQQPYITNRTFMLAKEASLADNNTDVRLIGEKLFHGVSMSERCYLMKQVLNFTLEEVLFPQSDRFQPYMQEVVPFLARLSNRLSTCHIEGDDLHIQRNVQKLKDTVKKLGESGEIKAIGELDLLFMSLRNACIGSGGGSGGGGSGGGGSVECPPCPAPPVAGPSVFLFPPKPKDTLMISRTPEVTCVVVDVSHEDPEVQFNWYVDGVEVHNAKTKPREEQFNSTFRVVSVLTVVHQDWLNGKEYKCKVSNKGLPASIEKTISKTKGQPREPQVYTLPPSREEMTKNQVSLTCLVKGFYPSDIAVEWESNGQPENNYKTTPPMLDSDGSFFLYSKLTVDKSRWQQGNVFSCSVMHEALHNHYTQKSLSLSPGK
chain 2: APISSHCRLDKSNFQQPYITNRTFMLAKEASLADNNTDVRLIGEKLFHGVSMSERCYLMKQVLNFTLEEVLFPQSDRFQPYMQEVVPFLARLSNRLSTCHIEGDDLHIQRNVQKLKDTVKKLGESGEIKAIGELDLLFMSLRNACIGSGGGSGGGGSGGGGSVECPPCPAPPVAGPSVFLFPPKPKDTLMISRTPEVTCVVVDVSHEDPEVQFNWYVDGVEVHNAKTKPREEQFNSTFRVVSVLTVVHQDWLNGKEYKCKVSNKGLPASIEKTISKTKGQPREPQVYTLPPSREEMTKNQVSLTCLVKGFYPSDIAVEWESNGQPENNYKTTPPMLDSDGSFFLYSKLTVDKSRWQQGNVFSCSVMHEALHNHYTQKSLSLSPGK
modifications: homodimer
lung histology (H&E, Masson's Trichrome, Sirius Red, PAS) [1]: ameliorates much of the H1N1-induced pathology
C-X-C Motif Chemokine 5 (LIX) in BAL (C57BL/6 mice; high dose LPS, F-652 4 μg i.v.): 0.00 ± 0.00 pg/mL
Eotaxin in BAL (C57BL/6 mice; high dose LPS, F-652 4 μg i.v.): 4.63 ± 2.43 pg/mL
Granulocyte-Macrophage Colony-Stimulating Factor in BAL (C57BL/6 mice; high dose LPS, F-652 4 μg i.v.): 0.00 ± 0.00 pg/mL
Interferon-γ in BAL (C57BL/6 mice; high dose LPS, F-652 4 μg i.v.): 8.08 ± 2.18 pg/mL
Interferon-γ-Induced Protein-10 in BAL (C57BL/6 mice; high dose LPS, F-652 4 μg i.v.): 118.40 ± 43.72 pg/mL
Interleukin-1α in BAL (C57BL/6 mice; high dose LPS, F-652 4 μg i.v.): 69.39 ± 5.91 pg/mL
Interleukin-1β in BAL (C57BL/6 mice; high dose LPS, F-652 4 μg i.v.): 3.48 ± 1.25 pg/mL
Interleukin-2 in BAL (C57BL/6 mice; high dose LPS, F-652 4 μg i.v.): 7.33 ± 0.83 pg/mL
Interleukin-3 in BAL (C57BL/6 mice; high dose LPS, F-652 4 μg i.v.): 1.07 ± 0.02 pg/mL
Interleukin-4 in BAL (C57BL/6 mice; high dose LPS, F-652 4 μg i.v.): 1.09 ± 0.09 pg/mL
Interleukin-5 in BAL (C57BL/6 mice; high dose LPS, F-652 4 μg i.v.): 7.86 ± 1.14 pg/mL
Interleukin-7 in BAL (C57BL/6 mice; high dose LPS, F-652 4 μg i.v.): 1.75 ± 0.18 pg/mL
Interleukin-9 in BAL (C57BL/6 mice; high dose LPS, F-652 4 μg i.v.): 311.8 ± 38.17 pg/mL
Interleukin-12 (p40) in BAL (C57BL/6 mice; high dose LPS, F-652 4 μg i.v.): 7.13 ± 1.89 pg/mL
Interleukin-12 (p70) in BAL (C57BL/6 mice; high dose LPS, F-652 4 μg i.v.): 1.95 ± 1.00 pg/mL
Interleukin-13 in BAL (C57BL/6 mice; high dose LPS, F-652 4 μg i.v.): 10.56 ± 1.49 pg/mL
Interleukin-15 in BAL (C57BL/6 mice; high dose LPS, F-652 4 μg i.v.): 6.10 ± 1.02 pg/mL
Interleukin-17 in BAL (C57BL/6 mice; high dose LPS, F-652 4 μg i.v.): 2.28 ± 0.56 pg/mL
Keratinocyte Chemoattractant/Growth Regulated Oncogene in BAL (C57BL/6 mice; high dose LPS, F-652 4 μg i.v.): 19.54 ± 3.08 pg/mL
Macrophage Colony-Stimulating Factor in BAL (C57BL/6 mice; high dose LPS, F-652 4 μg i.v.): 2.89 ± 1.02 pg/mL
Macrophage Inflammatory Protein-1α in BAL (C57BL/6 mice; high dose LPS, F-652 4 μg i.v.): 45.99 ± 7.56 pg/mL
Macrophage Inflammatory Protein-1β in BAL (C57BL/6 mice; high dose LPS, F-652 4 μg i.v.): 19.42 ± 7.63 pg/mL
Macrophage Inflammatory Protein-2 in BAL (C57BL/6 mice; high dose LPS, F-652 4 μg i.v.): 28.63 ± 5.43 pg/mL
Monocyte Chemoattractant Protein in BAL (C57BL/6 mice; high dose LPS, F-652 4 μg i.v.): 14.66 ± 7.16 pg/mL
Monocyte Induced by Interferon-γ in BAL (C57BL/6 mice; high dose LPS, F-652 4 μg i.v.): 100.60 ± 35.47 pg/mL
Vascular Endothelial Growth Factor in BAL (C57BL/6 mice; high dose LPS, F-652 4 μg i.v.): 12.18 ± 3.03 pg/mL
Interleukin-10 level in BAL fluid (C57BL/6 mice; high-dose LPS, F-652 4 μg tail vein, sham 4.05): 22.10 pg/mL
TNF-α level in BAL fluid (C57BL/6 mice; high-dose LPS, F-652 4 μg tail vein, sham 25.41): 5.87 pg/mL
IL-6 level in BAL fluid (C57BL/6 mice; high-dose LPS, F-652 4 μg tail vein, sham 527.1): 110.6 pg/mL
G-CSF level in BAL fluid (C57BL/6 mice; high-dose LPS, F-652 4 μg tail vein, sham 659.6): 95.14
C-X-C Motif Chemokine 5 (LIX) in BAL (C57BL/6 mice; low dose LPS, F-652 4 μg i.v.): 9.27 ± 6.04 pg/mL
Eotaxin in BAL (C57BL/6 mice; low dose LPS, F-652 4 μg i.v.): 2.59 ± 1.93 pg/mL
Granulocyte Colony-Stimulating Factor in BAL (C57BL/6 mice; low dose LPS, F-652 4 μg i.v.): 23.49 ± 9.15 pg/mL
Granulocyte-Macrophage Colony-Stimulating Factor in BAL (C57BL/6 mice; low dose LPS, F-652 4 μg i.v.): 0.00 ± 0.00 pg/mL
Interferon-γ in BAL (C57BL/6 mice; low dose LPS, F-652 4 μg i.v.): 1.15 ± 0.42 pg/mL
Interferon-γ-Induced Protein-10 in BAL (C57BL/6 mice; low dose LPS, F-652 4 μg i.v.): 12.94 ± 3.54 pg/mL
Interleukin-1α in BAL (C57BL/6 mice; low dose LPS, F-652 4 μg i.v.): 61.31 ± 12.36 pg/mL
Interleukin-1β in BAL (C57BL/6 mice; low dose LPS, F-652 4 μg i.v.): 0.01 ± 0.01 pg/mL
Interleukin-2 in BAL (C57BL/6 mice; low dose LPS, F-652 4 μg i.v.): 6.77 ± 1.75 pg/mL
Interleukin-3 in BAL (C57BL/6 mice; low dose LPS, F-652 4 μg i.v.): 0.00 ± 0.00 pg/mL
Interleukin-4 in BAL (C57BL/6 mice; low dose LPS, F-652 4 μg i.v.): 0.00 ± 0.00 pg/mL
Interleukin-5 in BAL (C57BL/6 mice; low dose LPS, F-652 4 μg i.v.): 0.00 ± 0.00 pg/mL
Interleukin-6 in BAL (C57BL/6 mice; low dose LPS, F-652 4 μg i.v.): 0.95 ± 0.62 pg/mL
Interleukin-7 in BAL (C57BL/6 mice; low dose LPS, F-652 4 μg i.v.): 0.00 ± 0.00 pg/mL
Interleukin-9 in BAL (C57BL/6 mice; low dose LPS, F-652 4 μg i.v.): 154.50 ± 37.46 pg/mL
Interleukin-10 in BAL (C57BL/6 mice; low dose LPS, F-652 4 μg i.v.): 19.91 ± 6.56 pg/mL
Interleukin-12 (p40) in BAL (C57BL/6 mice; low dose LPS, F-652 4 μg i.v.): 6.87 ± 1.88 pg/mL
Interleukin-12 (p70) in BAL (C57BL/6 mice; low dose LPS, F-652 4 μg i.v.): 0.00 ± 0.00 pg/mL
Interleukin-13 in BAL (C57BL/6 mice; low dose LPS, F-652 4 μg i.v.): 2.69 ± 0.93 pg/mL
Interleukin-15 in BAL (C57BL/6 mice; low dose LPS, F-652 4 μg i.v.): 0.00 ± 0.00 pg/mL
Interleukin-17 in BAL (C57BL/6 mice; low dose LPS, F-652 4 μg i.v.): 0.40 ± 0.06 pg/mL
Keratinocyte Chemoattractant/Growth Regulated Oncogene in BAL (C57BL/6 mice; low dose LPS, F-652 4 μg i.v.): 9.11 ± 2.76 pg/mL
Macrophage Colony-Stimulating Factor in BAL (C57BL/6 mice; low dose LPS, F-652 4 μg i.v.): 0.00 ± 0.00 pg/mL
Macrophage Inflammatory Protein-1α in BAL (C57BL/6 mice; low dose LPS, F-652 4 μg i.v.): 15.62 ± 2.03 pg/mL
Macrophage Inflammatory Protein-1β in BAL (C57BL/6 mice; low dose LPS, F-652 4 μg i.v.): 0.00 ± 0.00 pg/mL
Macrophage Inflammatory Protein-2 in BAL (C57BL/6 mice; low dose LPS, F-652 4 μg i.v.): 20.45 ± 10.88 pg/mL
Monocyte Chemoattractant Protein in BAL (C57BL/6 mice; low dose LPS, F-652 4 μg i.v.): 0.00 ± 0.00 pg/mL
Monocyte Induced by Interferon-γ in BAL (C57BL/6 mice; low dose LPS, F-652 4 μg i.v.): 10.52 ± 4.73 pg/mL
Tumor Necrosis Factor-α in BAL (C57BL/6 mice; low dose LPS, F-652 4 μg i.v.): 3.01 ± 1.79 pg/mL
Vascular Endothelial Growth Factor in BAL (C57BL/6 mice; low dose LPS, F-652 4 μg i.v.): 3.01 ± 0.50 pg/mL
tissue dampening (G) by FOT ([2]; aged H1N1 infected mice, baseline/tidal breathing, 3-week treatment): less resistance in small airways
static compliance (Cst) from PV loops relative to PBS controls ([2]; aged mice): increased static compliance
impedance following maximization of available lung volume ([2]; following airway recruitment maneuver, aged and young): has no effect
